Experimental data taken from patent US20250121076A1, “POLYPEPTIDE DRUG CONJUGATE HAVING NOVEL STRUCTURE AND APPLICATION THEREOF” (MEDSHINE DISCOVERY INC., priority 2021, published 2025).
Counter-ions that a name gives are not always drawn. Starred links: 1 amine or outer side, 2 acyl side, 3 side chain; linkers in the order of their positions; H or OH if unused. Positions of bridges follow the written chain, without caps; N, C: chain ends. Non-standard residues stand in square brackets, D forms with d. Residues, ends and D or L forms follow the SMILES beside them. Chains are numbered I, II in the order given. *: point of attachment. TATA = O=C(CC[*:1])N1CN(C(=O)CC[*:2])CN(C(=O)CC[*:3])C1; Dolaproine = CO[C@@H]([C@@H]1CCCN1)[C@@H](C)C(=O)O; Dil = CC[C@H](C)[C@H](NC)[C@@H](CC(=O)O)OC; X2 = O=C(CCCC(=O)[*:2])NCCC(=O)[*:1]; PABC = O=C(OCc1ccc(N[*:1])cc1)[*:2]; X1 = C[C@@H](N*)[C@@H](O)c1ccccc1; Hyp = O=C(O)[C@@H]1C[C@@H](O)CN1; hArg = N=C(N)NCCCC[C@H](N)C(=O)O; Cit = NC(=O)NCCC[C@H](N)C(=O)O; Pen = CC(C)(S)[C@H](N)C(=O)O; NMeV = CN[C@H](C(=O)O)C(C)C; Sar = CNCC(=O)O

Experiments:
Stability in whole blood = assay type: in vitro ADME, SD rats; conditions: SD rat whole blood, 2 μM, 37° C.
Method: To test the stability of the compounds of the present invention in whole blood from SD rats and Cynomolgus macaques.
(§1) The corresponding incubation plates, including T0, T10, T30, T60, T120, and T240 incubation plates, were added with a 2 μL working solution of the compound to be tested (100 μM). Three parallel wells were prepared for each sample. Then, 98 μL of blank whole blood from SD rats and Cynomolgus macaques was added to the corresponding incubation plates to which the working solution had been added. All samples were incubated in a 37° C. water bath. […] At the end of each incubation time point, the corresponding incubation plate was removed, added with stop buffer, precipitated, and centrifuged for 20 minutes. Then, 100 μL of the supernatant was diluted with 300 μL of ultrapure water, mixed uniformly, and then analyzed by the LC-MS/MS method. The concentration of the compound to be tested in the sample was semi-quantitatively determined by the liquid chromatography-tandem mass spectrometry (LC-MS/MS) method.

[1] = Pharmacokinetic analysis in rat plasma (6.1, 2 mg/kg); assay type: in vivo, SD rats; conditions: rat, in vivo, SD rats, single IV 2 mg/kg, plasma
Method: Experimental purpose: To test the pharmacokinetics of the compounds of the present invention in SD rats.
6.1 The pharmacokinetic characteristics of the compound after intravenous injection and oral administration were tested in rats according to a standard protocol. The compound to be tested was formulated into a clear solution using 50 mM acetate buffer (pH=5) in 10% sucrose as a vehicle. Two SD rats were given a single intravenous injection of 2 mg/kg of the compound to be tested. Whole blood was collected at time points of 0.083, 0.25, 0.5, 1, 2, 4, 8, and 24 hours after administration to get plasma. The concentration of the compound to be tested and the concentration of its potential metabolite MMAE were analyzed by the LC-MS/MS method, and the pharmacokinetic parameters were calculated by Phoenix WinNonlin software.

Human EphA2 = molecular target: T1, Human EphA2 (Homo sapiens, UniProt P29317); assay: Binding capacity test to EphA2 protein (SPR, Biacore 8K)
T1 construct: purchased Sino Biological 13926-H08HD
Method: To detect the affinity of the compound to be tested to the target protein EphA2 using the SPR method.
• Biacore 8K (GE Healthcare). • 96-well Plate (Cat #650101, greiner bio-one) • CM5 chip (Cat #BR-1005-30, GE Healthcare) • Amine Coupling Kit (Cat #BR-1000-50, GE Healthcare) EDC NHS 1 M ethanolamine. • 10 mM sodium acetate pH 4.5 (Cat #BR-1003-50, GE Healthcare) • DMSO (Cat #D4540, Sigma) • P20 (Cat #BR-1000-54, GE Healthcare). • PBS (Cat #BR-1006-72, GE Healthcare). • EphA2 (Cat #13926-H08HD, Sino Biological)
In this experiment, the amino coupling method was used. The target protein EphA2 was directly immobilized on the CM5 chip using Biacore 8K. The compound to be tested as an analyte was then diluted to a required concentration gradient with a buffer (10 mM PBS, pH 7.4, 137 mM NaCl, 2.7 mM KCl, 5% DMSO, and 0.05% P20) for multi-cycle kinetic detection, in which each cycle is formed by 180 seconds of sample injection and 180 seconds of dissociation, and then the next cycle was performed, to obtain kinetic analysis data on the affinity of the target protein EphA2 to the compound to be tested. The final data were subjected to Kinetics fitting analysis based on a 1:1 model using Biacore Insight Evaluation Software (V 2.0.15.12933).
1) Preparation of the buffer: 10 mM PBS, pH 7.4, 137 mM NaCl, 2.7 mM KCl, 5% DMSO, and 0.05% P20.
2) Activation of the CM5 chip: The CM5 chip was activated with 400 mM EDC and 100 mM NHS at a flow rate of 10 μL/min for 420 seconds.
3) Coupling of the target protein: The target protein was diluted to 10 μg/mL with 10 mM sodium acetate (pH 4.5) and coupled at a flow rate of 10 μL/min for 284 s. The 1 #, 2 #, and 3 #channels on the chip were used in the experiment, and the coupling results were 1639.9RU, 1747.8RU, and 1702.2RU, respectively.
4) Blocking of the CM5 chip: The CM5 chip was blocked with 1 M ethanolamine at a flow rate of 10 μL/min for 420 seconds.
5) Analyte concentration: The compound to be tested was diluted with the buffer. The compound to be tested was diluted from 100 nM to 0.78 nM in a 2-fold gradient.
6) Sample injection analysis: Each concentration of the working solution of the compound to be tested corresponded to one cycle, with a flow rate of 30 μL/min for binding for 180 seconds and dissociating for 180 seconds. The last cycle was a 5% DMSO solvent correction cycle. 7) All results were subjected to kinetics fitting analysis based on a 1:1 model.
The experimental data of five effective concentrations of the compounds of the present invention were selected for Kinetics fitting analysis based on a 1:1 model using Biacore Insight Evaluation Software (V 2.0.15.12933).

Stability in plasma = assay type: in vitro ADME, SD rats; conditions: SD rat plasma, 2 μM, 37° C., up to 240 min
Method: To test the stability of the compounds of the present invention in plasma from rats, Cynomolgus macaques, and humans.
as §1, with “blank plasma” for “blank whole blood”, “SD rats, Cynomolgus macaques,” for “SD rats”, “and humans” for “and Cynomolgus macaques”, “Then, 150” for “Then, 100”, “was” for “was diluted with 300 μL of ultrapure water, mixed uniformly, and then”

T1 sequence (P29317 24-534 limits assumed): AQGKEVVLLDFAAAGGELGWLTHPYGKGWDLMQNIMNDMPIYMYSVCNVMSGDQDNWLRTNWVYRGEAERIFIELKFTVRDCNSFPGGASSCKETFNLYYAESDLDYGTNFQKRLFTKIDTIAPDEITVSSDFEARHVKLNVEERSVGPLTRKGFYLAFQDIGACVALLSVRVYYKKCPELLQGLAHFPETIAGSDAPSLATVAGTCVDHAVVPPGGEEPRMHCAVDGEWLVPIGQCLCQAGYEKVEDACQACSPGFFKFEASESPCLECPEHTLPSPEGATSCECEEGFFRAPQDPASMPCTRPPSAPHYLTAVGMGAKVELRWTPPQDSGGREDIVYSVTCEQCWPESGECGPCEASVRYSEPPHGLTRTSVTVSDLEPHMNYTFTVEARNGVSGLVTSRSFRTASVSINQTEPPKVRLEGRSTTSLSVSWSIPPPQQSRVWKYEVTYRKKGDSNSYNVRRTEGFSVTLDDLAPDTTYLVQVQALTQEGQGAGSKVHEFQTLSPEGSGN

Question: What does the source list for `CC[C@H](C)[C@@H]([C@@H](CC(=O)N1CCC[C@H]1[C@H](OC)[C@@H](C)C(=O)N[C@H](C)[C@@H](O)c1ccccc1)OC)N(C)C(=O)[C@@H](NC(=O)[C@H](C(C)C)N(C)C(=O)OCc1ccc(NC(=O)[C@H](CCCNC(N)=O)NC(=O)[C@@H](NC(=O)CCCC(=O)NCCC(=O)N(C)CC(=O)N(C)CC(=O)N(C)CC(=O)N(C)CC(=O)N(C)CC(=O)N(C)CC(=O)N(C)CC(=O)N(C)CC(=O)N(C)CC(=O)N(C)CC(=O)N[C@H]2CCCCNC(=O)C[C@@H](C(=O)N[C@H]3CSCCC(=O)N4CN5CN(C4)C(=O)CCSC(C)(C)[C@@H](C(N)=O)NC(=O)[C@H](CCCCNC(=N)N)NC(=O)[C@H](Cc4c[nH]c6ccccc46)NC(=O)[C@@H](CC(=O)O)NC(=O)[C@@H]4CCCN4C(=O)[C@H](Cc4c[nH]cn4)NC(=O)[C@H](CC(C)C)NC(=O)[C@H](CSCCC5=O)NC(=O)[C@H](CC(C)C)NC(=O)[C@@H]4CCCN4C(=O)[C@H](CC(N)=O)NC(=O)[C@H](C(C)C)NC(=O)[C@H](CC(C)C)NC(=O)[C@@H]4C[C@@H](O)CN4C3=O)NC(=O)[C@H](CCCCNC(=N)N)NC2=O)C(C)C)cc1)C(C)C` [Acetate salt of PDC_8] (I: [Sar][Sar][Sar][Sar][Sar][Sar][Sar][Sar][Sar][Sar]K[hArg]DC[Hyp]LVNPLCLHP[dD]W[hArg][Pen]-NH2 / II: V[Cit][PABC][NMeV]V[Dil][Dolaproine]-X1; lactam I:11-I:13; linker I:14-I:21-I:28 via TATA; linker I:N-II:N via X2)?
Answer: half-life (Stability in whole blood): 9.31 h; AUC(0-t) [1]: 0.518 µM·h; C0 [1]: 1670 nM; clearance [1]: 14.4 mL/min/kg; half-life [1]: 0.29 h; Vd ([1]; read-out: Vdss): 0.28 L/kg; Kd (Human EphA2): 3.46 nM; half-life (Stability in plasma): > 9.63 h
